Laboratory results from paper doi:10.1101/2023.08.22.554218 (bioRxiv, 2023).

Molecular target: T1, Recombinant human PDZD8 (1,28-) - FLAG (human, UniProt Q8NEN9 1-1154, (1, 28-))
T1 sequence (looked up): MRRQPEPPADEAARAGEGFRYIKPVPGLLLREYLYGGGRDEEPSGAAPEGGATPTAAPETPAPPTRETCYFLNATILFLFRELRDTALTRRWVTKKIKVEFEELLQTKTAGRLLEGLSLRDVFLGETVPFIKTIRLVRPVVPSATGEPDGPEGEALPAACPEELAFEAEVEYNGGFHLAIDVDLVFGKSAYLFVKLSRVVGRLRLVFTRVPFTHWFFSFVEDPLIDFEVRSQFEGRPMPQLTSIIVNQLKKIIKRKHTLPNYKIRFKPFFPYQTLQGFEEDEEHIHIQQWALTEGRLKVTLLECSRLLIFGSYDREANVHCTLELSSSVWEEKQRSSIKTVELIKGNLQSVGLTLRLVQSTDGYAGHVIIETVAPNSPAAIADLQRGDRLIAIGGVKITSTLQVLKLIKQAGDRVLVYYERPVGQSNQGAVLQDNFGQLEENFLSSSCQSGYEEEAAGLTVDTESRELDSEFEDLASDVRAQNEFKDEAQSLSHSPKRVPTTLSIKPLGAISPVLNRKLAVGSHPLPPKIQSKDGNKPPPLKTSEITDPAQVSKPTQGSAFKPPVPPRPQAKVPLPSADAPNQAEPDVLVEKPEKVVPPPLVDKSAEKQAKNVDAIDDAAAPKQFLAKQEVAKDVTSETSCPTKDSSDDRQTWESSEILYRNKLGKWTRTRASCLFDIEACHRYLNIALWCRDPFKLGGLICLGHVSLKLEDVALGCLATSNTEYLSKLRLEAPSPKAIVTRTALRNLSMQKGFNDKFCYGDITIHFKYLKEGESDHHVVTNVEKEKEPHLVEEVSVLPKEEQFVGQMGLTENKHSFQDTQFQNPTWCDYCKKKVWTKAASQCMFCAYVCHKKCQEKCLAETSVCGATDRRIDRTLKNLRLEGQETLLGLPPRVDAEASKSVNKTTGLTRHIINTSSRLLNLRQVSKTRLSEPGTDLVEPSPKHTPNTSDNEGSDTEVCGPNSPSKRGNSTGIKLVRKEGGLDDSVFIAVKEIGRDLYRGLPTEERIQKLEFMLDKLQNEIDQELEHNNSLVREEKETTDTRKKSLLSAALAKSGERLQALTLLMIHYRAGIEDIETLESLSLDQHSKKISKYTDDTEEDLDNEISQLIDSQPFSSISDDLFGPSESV
Experiment: SPR

Kd: 142 µM
B1: Recombinant human FKBP8 (1-380) - Histag (domain or fragment, UniProt Q14318 1-380, looked up)
chain: MASCAEPSEPSAPLPAGVPPLEDFEVLDGVEDAEGEEEEEEEEEEEDDLSELPPLEDMGQPPAEEAEQPGALAREFLAAMEPEPAPAPAPEEWLDILGNGLLRKKTLVPGPPGSSRPVKGQVVTVHLQTSLENGTRVQEEPELVFTLGDCDVIQALDLSVPLMDVGETAMVTADSKYCYGPQGRSPYIPPHAALCLEVTLKTAVDGPDLEMLTGQERVALANRKRECGNAHYQRADFVLAANSYDLAIKAITSSAKVDMTFEEEAQLLQLKVKCLNNLAASQLKLDHYRAALRSCSLVLEHQPDNIKALFRKGKVLAQQGEYSEAIPILRAALKLEPSNKTIHAELSKLVKKHAAQRSTETALYRKMLGNPSRLPAKCPG
